Source: patent US12551573B2, “Compositions and methods for the targeting of PCSK9” (Scribe Therapeutics Inc., priority 2022, dated 2026)

system: HBEGF locus; assay type: cell-based, human; conditions: high-throughput screen of dXR repression of the HBEGF gene; change in abundance of each domain in the library before and after diphtheria toxin selection

| Molecule | Log2 (fold change) |
| --- | --- |
| DOMAIN_6807 (protein, listed as Xenopus laevis) LVKFEEVAVVFSEDEWNLLSDQQRGLYMEVMKENYEHLIYLGYEVPVILSLLQDGGGISSDAGSQSKSQQVAVAEGSNVNS | 3.1615 |
| DOMAIN_7353 (protein, Microcaecilia unicolor) AQMQVTFEDIAVFFCHEEWKYLDDGQKELYKEVMKENYETLISLGFLCEKPSLISKIEREEDPCVRDQQDFRERRRRLKSF | 2.6649 |
| DOMAIN_6445 (protein, listed as Alligator sinensis) MELREAFEDVAVYFTRKEWELLEDEDKELYRDLMLRNYQALVSLGYQGPTPGLICRIKQREVELWVCDDEHHGESSVSENL | 3.1151 |
| DOMAIN_9960 (protein, listed as Octodon degus) AVTMEDVTVTFTNEEWALLNPAQKRLYGDVMWETFRTISAIGRTWDSQQMEEEYKNYLRNLSNEEVAKCCRYTTFNQHENI | 3.4751 |

same assay, conditions: repressor domain in dXR, repression of the HBEGF gene; abundance of domain in library after vs before diphtheria toxin selection

| Molecule | Log2 (fold change) |
| --- | --- |
| DOMAIN_9119 (protein, listed as Mesocricetus auratus) FQNSLTFDDVAVDFTQEEWVLMDQTQRDLYREVMLENYQNLFSAGCEITKPSLISWLEEDLQIGQREDFQEWEMQDTLREQ | 2.2985 |
| DOMAIN_9489 (protein, listed as Dipodomys ordii) LASISFEDLAVTFTEEEWEHLDLGQRNLYQEVMLETYQLLVSLGDQVRLAPPTPGTPLPALPAQPRLLGLPSQPLDRRGTP | 3.0215 |
| DOMAIN_8492 (protein, listed as Mus musculus) RERLVSFEDVTVDFSQEEWRRLDSVQRHLYQDVMLEIYSHLLAVGYPVPSPGAIFRIKKRKEARTGEAKLPHPCWCQEVES | 3.3107 |
| DOMAIN_8953 (protein, listed as Mus caroli) MNGMTYDDVHVNFTGEEWALLSPSQKRLYKDVMLETYRNLTAIGYSWEDRNIEEHFQRSRRHGRHERSHTGENPSVYTQCN | 2.5941 |
| DOMAIN_8982 (protein, listed as Mesocricetus auratus) MGAVTYDDVHINFTQEEWALLNPSQKRLYKDVMHDTYSNLTATGYSLEDHYIEEHCQSSRRCRRHLQRHKKVHIGEKPYES | 3.1585 |
| DOMAIN_8425 (protein, listed as Peromyscus maniculatus) HKKSMVFSDVSLDFSQEEWECLGPAQKDLYRDVMLENYSHLLSVAGLHIPKPQVISLLEQGKEPWMIGKELTRGLCSALES | 2.8391 |
| DOMAIN_8545 (protein, listed as Rattus norvegicus) APLPLTFEDVAIYFSEQEWQHLETWQKELYKQVMRTNYETLISLDNGLPKPELISWMELGRENFGSWGEGQKVDRGIRCSV | 3.1044 |
| DOMAIN_9141 (protein, listed as Mus caroli) LNSAVTYDDVNVNFTREEWALLDSSQKSLYKDVMLETYRNLTAIGYNWEGHNIEEHCQSSRRHARTHKRTHTGEKSYECDQ | 3.035 |
| DOMAIN_7716 (protein, Pogona vitticeps) VAFEDVAVYFTAEEWDLLGPNQKSLYSEVMMENYENVSYLADNWKKTIAFAHSQKDFIHKLHQRTHKEDEHHTRAEPCEST | 3.1171 |
| DOMAIN_7605 (protein, listed as Alligator sinensis) SKLSEAFEDVAVYFTWKEWALLEAADKMLYRDQMLKNYQALFSLGYRGPTPDLICRIQRGEMELWVSDLEEAGESSLSEDS | 2.8444 |
| DOMAIN_8282 (protein, listed as Peromyscus maniculatus) FQNSLTYDDVHINFTCEEWALLDASQKRLYKDVMLETYSNLTAIGYKWEDHNIEEHCQRFRRRGRHKRSRTEERPYECKQC | 3.9882 |
| DOMAIN_9303 (protein, Marmota monax) FKGPVTFKDVTVEFTKEEWKLLTPAQRTLYKDVMLENYNHLVSVGYRVSKPNLVFKLKQGKEPWVLEVEFPRRRCPEELWN | 2.5344 |
| DOMAIN_8746 (protein, listed as Mesocricetus auratus) SQGLVTFGDVAVVFSQEEWEWLSSEQRSLYWRVMLDNYRNLASLGLCASKPDMIALLEQGKDPCVLKRKTARGLRPDLEAV | 3.317 |
| DOMAIN_9541 (protein, listed as Dipodomys ordii) SQGLVTFEDVAVYFSLEEWERLNVEQRALYQEVMQGNYGILVSLGYPIPKPDLIFRLEQGEEPWVPDSPHPEEGDIVTGVY | 2.8442 |
| DOMAIN_7774 (protein, Pogona vitticeps) PQDSVTFEEVAVSFSREEWALLTDWQKNLYKDVMRDNYEMLNSLDLAAHKPDIILRIERGQEPCVGRLQRSKARERPNHVF | 3.427 |
| DOMAIN_8618 (protein, listed as Mesocricetus auratus) MESVSFEDVAVNFTPEEWALLNSSQKRLHRDVMQENFRNLAAIAKNQEDPTLEDDYEYLRKILPFAVQTGYRLCENQDYAE | 2.6363 |

| Molecule | Log2 (fold change) |
| --- | --- |
| DOMAIN_8460 (protein, listed as Peromyscus maniculatus) MNAVTYDDVHVDFTWDEWALLDPSQKNLYKNVMLETYRNLTAIGYKWEEHNINEKFQRSRRNRRHERSHTGEKSYECNQCG | 3.1352 |
| DOMAIN_8712 (protein, listed as Mesocricetus auratus) PADRDAVTYDDVHIGFTQEEWVLLNPSQKSLYKDVMLDTYRNLTAIGYRWQDHNIEEHCENSRRHRRKFSCTTKPYESLQN | 2.7776 |
| DOMAIN_8424 (protein, listed as Peromyscus maniculatus) MDAVTYEDVQVSFTREEWTLLDPSQKSLYKDVMVETYRNLTAIGYKWEDQNIKKHHQCSRRHGRHERSNSAEKDYECEQCG | 2.7945 |
| DOMAIN_7607 (protein, listed as Alligator sinensis) MEPRDAFEDVAVYFTREEWALLDDGDKGLYRDQMLRNYQALVSLGYRGPTPDLICCIQRGKVELWVRDGEDHGEISGSEDL | 2.7102 |
| DOMAIN_8862 (protein, Marmota monax) TLGLLSFNDVSLEFSWEEWQLLDSAQRYLYREVILENYSNLLSVGYHGTKPDLIFRLEQGEEPWILNAKMSTQNCPEVWED | 2.3521 |
| DOMAIN_9332 (protein, listed as Peromyscus maniculatus) TENAVTYDDVHVGFTWEEWALLDPSQKNLYKDVMLDTYRNLTTIGYSWEGHNIEEHFQSSRRHERHKRSDTGENSSVYTQC | 3.9002 |
| DOMAIN_8036 (protein, listed as Alligator mississippiensis) AQRWEAFEDVALYFTQKEWELLRDGDKVLYQEQMLRNYQALVSLGYQGPTPDLICRIQRGDMELWVCDDEDPKESMWSEGL | 2.3504 |
| DOMAIN_8340 (protein, listed as Peromyscus maniculatus) EQDAVTYEDVHVNFTHEEWALLDPSQKSLYKDVMMETYWNLTCIGYKWEDHNIEEHCQSCRRNGSRCVICHSGHNPCEHKG | 2.2764 |
| DOMAIN_8317 (protein, listed as Mus caroli) CQALVTFEDVAVTFTDDEWKRLVPVQRALYKAVMLENYESIISLGLPVPRPDLILQFKRRGEPWMRGFHGSEEKAWPESVS | 3.3091 |
| DOMAIN_8012 (protein, listed as Callipepla squamata) PSVPVTFRDVFVQFSRDEWALLDDEQKELHQSVMQSNYEVLMSLYCDLAKPEVLLQMERGEPCLPAEPDLQGAAVSLNPAA | 3.2046 |
| DOMAIN_9329 (protein, listed as Peromyscus maniculatus) NAVTYNDVHVDFTQEEWALMDPSQRNLYKDVMVETYMNLTAIGYNWEDLEVEEHCQNSLKHGRHKRPHTTEKSCEYMGCGK | 4.263 |
| DOMAIN_8555 (protein, listed as Cricetulus griseus) MAFEDVAVYFSQEEWVFLDAAQRALYRHVMLENFALVDSIGLSISRPRVIIQLQRGEEPWVPNRTNTGPGRGTRRRPSLGS | 3.2852 |
| DOMAIN_8881 (protein, listed as Cricetulus griseus) MAFEDVAVYFSQEEWVFLDAAQRALYRHVMLENFALVDSIGLSISRPRVIIQLQRGEEPWVSNRTNTGPGRGTRRRPSLGS | 3.743 |
| DOMAIN_9217 (protein, listed as Mesocricetus auratus) MAFEDVAVYFSQEEWMFLDAAQRALYRHVMLENFALVDSIGLSVSRPRVIIQLQRGEEPWVPNRTNPGPGRSTCRRPSLGS | 3.8919 |
| DOMAIN_8742 (protein, listed as Peromyscus maniculatus) MGSVSFEDISLDFTWDEWQDLDSAQRTLYRDVMLENYSSLMFLGHCTTKPELIFKLEHGFGPWSLAEASIQSLPGVHKMTV | 2.3354 |
| DOMAIN_7813 (protein, listed as Columba livia) WQEPVTFEDVAVYLSHAEWDAMAPEQRELYCSVMLDNYQLLASLGYPGPKPDIVYRLERGEEPWGCAPQSPLSWDGPRSPS | 3.4645 |
